Patent publication US8901076 (Molecular Partners, dated 2014)

Target: VEGF-A165 (UniProt P15692 27-191)
Assay: cell-based or functional assay

VEGF-A165, sequence (P15692 other isoform, or with tags, fused parts or gaps): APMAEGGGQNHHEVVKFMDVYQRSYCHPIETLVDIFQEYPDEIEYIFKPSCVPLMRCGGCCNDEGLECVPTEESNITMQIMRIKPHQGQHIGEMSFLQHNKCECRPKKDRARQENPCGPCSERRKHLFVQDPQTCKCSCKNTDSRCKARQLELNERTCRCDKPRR

IC50 (read off the curve); sprout length of VEGF-A165 stimulated HUVEC spheroids: ~0.03 nM
B1: DARPin #30 (designed binder)
chain: GSDLGKKLLEAARAGQDDEVRILMANGADVNTADSTGWTPLHLAVPWGHLEIVEVLLKYGADVNAKDFQGWTPLHLAAAIGHQEIVEVLLKNGADVNAQDKFGKTAFDISIDNGNEDLAEILQKAA
